Data: patent US8114968 (DYAX, dated 2012)
Changes are numbered by the printed parent chain.

B1: 539B-M0015-F02 (Fab, V domains shown)
VH: EVQLLESGGGLVQPGGSLRLSCAASGFTFSRYGMTWVRQAPGKGLEWVSGISPSGGNTWYADSVKGRFTISRDNSKNTLYLQMNSLRAEDTAVYYCTSHDYGDHYGMDVWGQGTLVTVSS
VL: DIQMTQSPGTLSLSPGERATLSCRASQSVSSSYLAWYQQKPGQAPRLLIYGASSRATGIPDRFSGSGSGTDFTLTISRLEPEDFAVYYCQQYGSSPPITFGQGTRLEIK
B2: 539B-M0007-H06 (Fab, V domains shown)
VH: EVQLLESGGGLVQPGGSLRLSCAASGFTFSHYWMHWVRQAPGKGLEWVSSISSSGGMTYYADSVKGRFTISRDNSKNTLYLQMNSLRAEDTAVYYCTTADYGYYYGMDVWGQGTTVTVSS
VL: DIQMTQSPGTLSLSSGERATLSCRASQSVSSNYLAWYQQKRGQAPRLLIYGASSRATGVPGRFSGSGSGTDFTLTISRLEPEDFAVYYCQQYGSSPRTFGQGTKLEIK
B3: 539B-M0008-H09 Fab (Fab, V domains shown)
VH: EVQLLESGGGLVQPGGSLRLSCAASGFTFSDYNMHWVRQAPGKGLEWVSYIGPSGGYTHYADSVKGRFTISRDNSKNTLYLQMNSLRAEDTAVYYCAKDIRGAYSSGLFDYWGRGTLVTVSS
VL: DIQMTQSPSSLSASVGDRVTITCRANQSIYTYLNWYQQKPGKAPELLIYAASSLQSGVPSRFSGSGSGTDFTLTISSLQPEDFATYYCQQAGIFGQGTKLEIK
notes: N-glycosylation site in LC CDR1; also called M08H09
B4: 539B-M0011-H11 Fab (Fab, V domains shown)
VH: EVQLLESGGGLVQPGGSLRLSCAASGFTFSWYNMWWVRQAPGKGLEWVSYIYPSGGNTGYADSVKGRFTISRDNSKNTLYLQMNSLRAEDTAVYYCAVFEYSSSGPQGYWGQGTLVTVSS
VL: QSALTQPPSVSVAPGQTARITCGGNNIGTKSVHWYQQKSGQAPVLVVYDNSDRPSGIPERFSGSNSGNTATLTISRVEAGDEADYYCQVWDNSIDHVVFGGGTKLTVL
B5: 539B-M0071-D09 (Fab, V domains shown)
VH: B3 VH with D31P, N33W, Y50G, G52S, P53S, Y57D, H59L
VL: B3 VL
B6: 539B-M0065-H05 (Fab, V domains shown)
VH: B3 VH with D31Y, N33G, H35G, Y50V, G52S, P53S, Y57F, H59F
VL: B3 VL
B7: 539B-M0063-G01 (Fab, V domains shown)
VH: B3 VH with D31W, N33W, H35V, Y50S, Y57D, H59Y
VL: B3 VL
B8: 539B-M0063-B01 (Fab, V domains shown)
VH: B3 VH with D31W, N33W, H35G, Y50S, G52S, H59F
VL: B3 VL
B9: 539B-M0071-H03 (Fab, V domains shown)
VH: B3 VH with D31P, N33W, Y50G, Y57P, H59F, V64I
VL: B3 VL
B10: 539B-M0063-B11 (Fab, V domains shown)
VH: B3 VH with D31P, N33W, Y50G, Y57L, H59F
VL: B3 VL
B11: 539B-M0067-F06 (Fab, V domains shown)
VH: B3 VH with D31W, H35S, Y50R, G52S, Y57D, H59G
VL: B3 VL
B12: 539B-M0069-C02 (Fab, V domains shown)
VH: B3 VH with D31Y, Y50G, Y57G, H59L
VL: B3 VL
B13: 539B-M0063-C07 (Fab, V domains shown)
VH: B3 VH with D31P, N33W, H35S, Y50G, G52S, Y57I, H59F
VL: B3 VL
B14: 539B-M0067-B06 (Fab, V domains shown)
VH: B3 VH with D31W, N33W, Y50G, G52V, P53S, Y57T, H59I
VL: B3 VL
B15: 539B-M0071-A01 (Fab, V domains shown)
VH: B3 VH with D31E, N33W, H35T, Y50G, G52S, Y57M, H59F
VL: B3 VL
B16: 539A-M0013-G12 IgG (antibody, V domains shown)
VH: EVQLLESGGGLVQPGGSLRLSCAASGFTFSWYHMFWVRQAPGKGLEWVSGISSSGGYTHYADSVKGRFTISRDNSKNTLYLQMNSLRAEDTAVYYCATREGMLYDYVWGENYMDVWGKGTTVTVSS
VL: DIQMTQSPSSLSASVGDRVTITCQASQDTYNRLHWYQQKPGKAPKLLIYDAVNLNRGVPSRFRGSGSGTNYILIITNLQPEDTATYYCQHSDDLSLAFGGGTKVEIK
notes: also called M0013-G12 IgG a-huMMP12
B17: 539A-M0013-D11 IgG (antibody, V domains shown)
VH: EVQLLESGGGLVQPGGSLRLSCAASGFTFSSYPMWWVRQAPGKGLEWVSGIVPSGGVTIYADSVKGRFTISRDNSKNTLYLQMNSLRAEDTAVYYCARVGWLASSDYYYYMDVWGKGTTVTVSS
VL: DIQMTQSPSSLSASVGDRITISCQASQDIDNYLNWYQQRSGKAPKLLIYDAYNLKAGVPSRFRGSRSGTDFFLTISSLQPEDFATYYCQQSYRAPLTFGGGTKVEIK
B18: 539A-M0013-H06 IgG (antibody, V domains shown)
VH: EVQLLESGGGLVQPGGSLRLSCAASGFTFSAYEMDWVRQAPGKGLEWVSGISSSGGPTYYADSVKGRFTISRDNSKNTLYLQMNSLRAEDTAVYYCARVGGWELLQDYYYYMDVWGKGTTVTVSS
VL: DIQMTQSPATLSLSPGERATLSCRASHSVDNLAWYQQQPGQAPRLLIYDVSYRATGIPARFSGSGSGTDFTLTISSLEPEDFAVYYCQQRNNWPLSLTFGGGTKVEIK
B19: 539A-M0016-A11 IgG (antibody, V domains shown)
VH: EVQLLESGGGLVQPGGSLRLSCAASGFTFSEYQMAWVRQAPGKGLEWVSSIYPSGGHTHYADSVKGRFTISRDNSKNTLYLQMNSLRAEDTAVYYCAKESYYDFWSGYYFDYWGQGTLVTVSS
VL: DIQMTQSPSSLSASVRDRVTITCRTSQNINTYLNWYYQAPGRAPKLLIFGVSSLHRGVSSRFSGSGDGTEFTLTISSLQPEDIGTYFCQQSYSSPWTFGQGTKVEIK
notes: also called M0016-A11 IgG a-huMMP12
B20: 539B-M131A06 (antibody, V domains shown)
VH: B3 VH with D31W, N33W, Y50G, G52S, Y57M, H59M, K98R, R101V, A103P, S106A
VL: B3 VL
notes: N-glycosylation site in LC CDR1; also called M0131-A06
B21: 539B-M0008-H09 (format not stated) (antibody, V domains shown)
VH: B3 VH
VL: B3 VL
notes: Same clone as m49 and m54; also called M08H09

biological target: T1, human MMP-12 (human, UniProt P39900 106-470, limits assumed); assay: cell-based or functional assay
T1 sequence (P39900 106-470 limits assumed): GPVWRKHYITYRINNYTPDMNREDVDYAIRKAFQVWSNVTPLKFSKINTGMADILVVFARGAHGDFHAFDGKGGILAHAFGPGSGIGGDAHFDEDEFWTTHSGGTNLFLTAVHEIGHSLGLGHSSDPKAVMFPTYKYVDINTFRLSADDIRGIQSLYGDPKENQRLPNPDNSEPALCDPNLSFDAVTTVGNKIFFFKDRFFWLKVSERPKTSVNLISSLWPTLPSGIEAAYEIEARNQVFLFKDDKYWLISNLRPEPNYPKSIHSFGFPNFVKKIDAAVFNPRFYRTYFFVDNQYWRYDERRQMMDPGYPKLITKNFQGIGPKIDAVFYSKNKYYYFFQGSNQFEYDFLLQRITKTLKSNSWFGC

| % of activity left with 100 nM in assay 04 Oct. 2006 | Binder |
| --- | --- |
| 84.1% | B1 |
| 55.5% | B2 |
| 4.6% | B3 |
| 12.2% | B4 |

biological target: T1, human MMP-12; assay: cell-based or functional assay; remark: another data set of the same source

| IC50hu | Binder |
| --- | --- |
| 12.1 nM | B3 |
| 2.4 nM | B5 |
| 0.7 nM | B6 |
| 0.8 nM | B7 |
| 0.7 nM | B8 |
| 0.2 nM | B9 |
| 0.7 nM | B10 |
| 0.7 nM | B11 |
| 1.6 nM | B12 |
| 1 nM | B13 |
| 0.7 nM | B14 |
| 0.3 nM | B15 |

biological target: T2, murine MMP-12 (mouse, UniProt P34960 110-473, limits assumed); assay: cell-based or functional assay
T2 sequence (P34960 110-473 limits assumed): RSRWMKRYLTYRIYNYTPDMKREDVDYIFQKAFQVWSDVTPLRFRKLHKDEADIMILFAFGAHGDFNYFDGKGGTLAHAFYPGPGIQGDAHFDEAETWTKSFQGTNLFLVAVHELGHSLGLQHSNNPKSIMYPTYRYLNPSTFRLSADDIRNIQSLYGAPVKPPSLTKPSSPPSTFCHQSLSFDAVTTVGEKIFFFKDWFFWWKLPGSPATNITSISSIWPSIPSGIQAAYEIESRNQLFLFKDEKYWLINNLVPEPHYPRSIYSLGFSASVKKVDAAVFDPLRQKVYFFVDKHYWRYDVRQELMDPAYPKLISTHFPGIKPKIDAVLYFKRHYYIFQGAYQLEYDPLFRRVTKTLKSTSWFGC

| IC50 m | Binder |
| --- | --- |
| < 10 nM (not printed; inferred) | B3 |
| < 10 nM (not printed; inferred) | B5 |
| > 10 nM (not printed; inferred) | B7 |
| > 10 nM (not printed; inferred) | B8 |
| < 10 nM (not printed; inferred) | B9 |
| > 10 nM (not printed; inferred) | B10 |
| < 10 nM (not printed; inferred) | B11 |
| ~10 nM (not printed; inferred) | B12 |
| < 10 nM (not printed; inferred) | B13 |
| < 10 nM (not printed; inferred) | B14 |
| > 10 nM (not printed; inferred) | B15 |

biological target: T1, human MMP-12; assay: Ki from inhibition of MMP-12 enzyme activity

| Ki | Binder |
| --- | --- |
| 2.05 nM | B16 |
| 4.97 nM | B17 |
| 2.7 nM | B18 |
| 0.7 nM | B19 |

biological target: T1, human MMP-12; assay: cell-based or functional assay; remark: another data set of the same source

| IC50 (nM), IgGs | Binder |
| --- | --- |
| 4.1 nM | B16 |
| 13.3 nM | B17 |
| 5.3 nM | B18 |
| 2.1 nM | B19 |

biological target: T1, human MMP-12; assay: inhibition assay of MMP-12 activity ('IC50 or Ki')

| Ki | Binder |
| --- | --- |
| < 0.3 nM | B20 |

biological target: T1, human MMP-12; assay: BIACORE, coated Fab

| Kd | Binder |
| --- | --- |
| 17.7 nM | B3 |
| 2.19 nM | B6 |
| 1.58 nM | B7 |
| 0.171 nM | B8 |
| 1.03 nM | B9 |
| 0.12 nM | B10 |
| 0.203 nM | B11 |
| 6.97 nM | B12 |
| 2.29 nM | B13 |
| 0.62 nM | B14 |
| 1.1 nM | B15 |

biological target: T2, murine MMP-12; assay: BIACORE, coated Fab

| koff | Binder |
| --- | --- |
| 0.004 s⁻¹ | B3 |
| 0.00654 s⁻¹ | B7 |
| 0.0025 s⁻¹ | B8 |
| 0.00311 s⁻¹ | B10 |
| 0.00025 s⁻¹ | B11 |
| 0.002 s⁻¹ | B13 |
| 0.01 s⁻¹ | B15 |

biological target: T1, human MMP-12; assay: IC50 against substrate concentration, enzyme inhibition, FIG. 3

| Ki | Binder |
| --- | --- |
| 2.8 nM | B21 |

biological target: T2, murine MMP-12; assay: as above

| Ki | Binder |
| --- | --- |
| 2.2 nM | B21 |
